Values quoted from earlier work in article PMC8322311.
Where two headings read alike, the source gives them in different places.

What was measured:
SHH (Homo sapiens) [1] = target: SHH (Homo sapiens) (UniProt Q15465)
SHH (Homo sapiens) [2] = target: SHH (Homo sapiens) (UniProt Q15465); remark: listed apart in the source

| Kd (SHH (Homo sapiens) [1]) [nM] | Kd (SHH (Homo sapiens) [2]) [nM] | Substance |
| --- | --- | --- |
| 32 | – | Glypican-3 (from UniProt P51654) |
| – | 6 | HHIP (from UniProt Q96QV1) |
